Among the data in US20120108796A1 (Bayer, published 2012) are variant/wild-type values, retold here.

The target of this experiment is T1, human TFPI (tissue factor pathway inhibitor) (human, UniProt P10646 29-304, limits assumed).
T1 construct: bought protein, coated on ELISA plates or amine-coupled to a CM5 chip; also called hTFPI
T1 sequence (looked up): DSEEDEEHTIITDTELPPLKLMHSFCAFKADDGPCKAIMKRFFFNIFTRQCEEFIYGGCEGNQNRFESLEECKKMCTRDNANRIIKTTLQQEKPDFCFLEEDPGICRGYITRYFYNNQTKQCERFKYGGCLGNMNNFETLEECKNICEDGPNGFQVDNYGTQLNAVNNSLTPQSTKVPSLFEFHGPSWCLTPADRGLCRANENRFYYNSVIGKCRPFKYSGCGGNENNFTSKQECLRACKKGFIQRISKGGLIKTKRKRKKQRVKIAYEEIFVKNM
Nature of the experiment: competitive ELISA. The procedure:
Briefly, MTP plates (either Mesoscale Discovery, L21XA-4 or Nunc maxisorp black, 460518) were coated with 0.04-2 lug/m1 either human or mouse TFPI diluted in phosphate buffered saline (PBS) or in coating buffer (Candor Bioscience GmbH, 121500), respectively and incubated over night at 4° C. After washing, plates were blocked with 3% bovine serum albumin (Sigma, A4503) in PBST for 1 hour at room temperature and the washing step was repeated. For binding of the antibodies 10-25 µl of culturing supernatants normalized to their respective antibody expression level (if not otherwise indicated) were added to the plates for 1 hour at RT followed by washing with PBST. Bound wild-type and variants were then either detected by an epitope tag specific antibody or a competition step was included. For competition, 50-300 nM competitor or free antigen was added and incubated for 20 minutes to 24 hours at room temperature. […] For signal detection in maxisorp plates 10 [tM amplex red substrate (Invitrogen, A12222) was added and incubated for 10 to 30 minutes at room temperature in the dark followed by fluorescence measurement. For the detection in MSD plates MSD read buffer T was diluted to 2× in H2O (Mesoscale Discovery, R92TC-1), added to the plates and the electrochemiluminiscence signal was detected at 620 nm using the Mesoscale Discovery Sector Imager 6000. […]

B1: 4B7 HC H107M LC F31I (Fab, V domains shown)
VH: QVQLQQSGPGLVKPSQTLSLTCAISGDSVSSNSAAWSWIRQSPGRGLEWLGIIYKRSKWYNDYAVSVKSRITINPDTSKNQFSLQLNSVTPEDTAVYYCARWHSDKMWGFDYWGQGTLVTVSS
VL: DIVMTQSPLSLPVTPGEPASISCRSSQSLVISDGNTYLNWYLQKPGQSPQLLIYKGSNRASGVPDRFSGSGSGTDFTLKISRVEAEDVGVYYCQQYDSYPLTFGQGTKVEIKR
notes: Fab; tags as m115; also called HC H107M LC F311 (so in the source)
Turning to B1, the variant/wild-type turned out to be 3.7 ratio.
